1 protein from article PMC3022644, “The exopolyphosphatase TbrPPX1 of Trypanosoma brucei” (BMC Microbiology, 2011) can be followed below.

Substrate in the series: O=P(O)(O)OP(=O)(O)OP(=O)(O)O
Kind of series: purified protein. In kind it is biochemical, Trypanosoma brucei. As to conditions: 50 mM HEPES pH 7.8, 50 μM EGTA, 1 mM MgCl2, 30°C, GST fusion.

B1: TbrPPX1 (Trypanosoma brucei) (protein)
chain: MTAVVNEFLKRGVRALAARQDSVLVMGNEGGDMDTVIGSIFLAMYLEKRDVFGVGSYVPVLNFEKDDLPLRQDVVKLLSRHNVSTDSIYSVKQSGNGVDFLDLHQMKLPIVLYDHNKLSPEQVYLGERIVGVVDHHEDEQLYVDQTKCLRRICKTGSACTLVAELFNEAGLEVPCPELLLAPIVVDTVNFEPSQKRVTERDILASRLLVGRDDCGDYLTGMFKELMAWKNDIHCLTVPQHLRRDYKNFEFPFISAENKILRVGISSISCRSDELLSVHGVSSVSSNCIEFIKQRSIDMLLLTFAGERTPGSYCRQLGVVAKDEGLAALQAYCKKSPSGLDFTLLEDVTVNEWAFSIYELSDPSVSRKKLVPSLTSFLSVWNNL
As to B1, the Km came to 27.2 ± 4.2 µM and the kcat was 8.1 ± 1.5 s⁻¹.
